In one assay the target is T1, human IL-13 wild type (human, UniProt P35225 35-146).
T1 construct: also called h IL-13; hIL-13 wt
Briefly: competition: human IL-13 to human IL-13Rα2, cell surface-based and ELISA-based RBA. (In general: In an ELISA, binding on a coated surface is turned into a signal by an enzyme label.)

Assay [1] concerns the target T2, human IL-13 variant (R130Q of SEQ ID NO 1) (human, UniProt P35225 35-146).
T2 construct: Recombinant purified protein (Peprotech for immunisation); also called h IL-13v; hIL-13v
Briefly: SPR (Biacore), captured mAb. The method, then:
The BIACORE assay (Biacore, Inc, Piscataway, N.J.) determines the affinity of antibodies with kinetic measurements of on-, off-rate constants. […] All chemicals were obtained from Biacore® AB (Uppsala, Sweden) or otherwise from a different source as described in the text. Approximately 5000 RU of goat anti-mouse IgG, (Fcγ), fragment specific polyclonal antibody (Pierce Biotechnology Inc, Rockford, Ill.) diluted in 10 mM sodium acetate (pH 4.5) was directly immobilized across a CM5 research grade biosensor chip using a standard amine coupling kit according to manufacturer's instructions and procedures at 25 μg/ml. […] Unmodified carboxymethyl dextran without goat anti-mouse IgG in flow cell 1 and 3 was used as the reference surface. For kinetic analysis, rate equations derived from the 1:1 Langmuir binding model were fitted simultaneously to association and dissociation phases of all eight injections (using global fit analysis) with the use of Biaevaluation 4.0.1 software. […] The association and dissociation rate constants, kₒₙ (unit M⁻¹s⁻¹) and koff (unit s⁻¹) were determined under a continuous flow rate of 25 μl/min Rate constants were derived by making kinetic binding measurements at ten different antigen concentrations ranging from 10-200 nM. […] Binding is recorded as a function of time and kinetic rate constants are calculated.
In general terms: In SPR one partner is held on a chip, and binding of the other changes the refractive index at the surface.

Our source for the IC50 and kon values is US20140099313A1 (published 2014).

T1 sequence (P35225 other isoform, or with tags, fused parts or gaps limits assumed): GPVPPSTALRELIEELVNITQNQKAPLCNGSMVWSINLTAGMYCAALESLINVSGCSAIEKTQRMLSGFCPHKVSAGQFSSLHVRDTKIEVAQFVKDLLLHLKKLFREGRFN
T2 sequence (P35225 35-146 limits assumed, stated change not applied): as the sequence (P35225 other isoform, or with tags, fused parts or gaps limits assumed) above, with R110Q counted along it

B1: 13C5.5 (antibody, human IgG1, V domains shown)
VH: EVTLRESGPGLVKPTQTLTLTCTLYGFSLSTSDMGVDWIRQPPGKGLEWLAHIWWDDVKRYNPALKSRLTISKDTSKNQVVLKLTSVDPVDTATYYCARTVSSGYIYYAMDYWGQGTLVTVSS
VL: DIQMTQSPSSLSASVGDRVTISCRASQDIRNYLNWYQQKPGKAPKLLIFYTSKLHSGVPSRFSGSGSGTDYTLTISSLQPEDIATYYCQQGNTLPLTFGGGTKVEIK
notes: Humanized; also called humanized 13C5
For the molecule B1, the IC50 (as a rule, the concentration that inhibits the measured activity by half) with human IL-13 wild type was 1 to 3 nM.

B2: 1B6 (antibody, V domains shown)
VH: QVQLKESGPGLVAPSQSLSITCTVSGFSLTGYGVNWVRQPPGKGLEWLGMIWGDERIDYNSALKSRLSITKDNSKSQVFLKMNSLQTDDTGRYFCARDGYFPYAMDYWGQGTSVTVSS
VL: NIVLTQSPASLAVSLGQRATISCRASETVDSYGKSYLHWYQQKPGQPPKLLIYLASNLESGVPARFSGSGSRTDFTLIIDPVEADDAATYYCQQNNEGPRTFGGGTKLEIKR
notes: Murine monoclonal, IgG1κ
With B2, the kon (as a rule, the rate constant with which the complex forms) in assay [1] amounted to 106000 M⁻¹ s⁻¹.
